Measured values taken from PMC12990809.

How the values were obtained:
Assay in all cases: pulldown
Settings in all cases: 20 nM protein, 1.5 uM RNA pool; 20 mM HEPES pH 7.8, 70 mM KCl, 10 mM NaCl, 10% glycerol, 2 mM DTT, 0.1 ug/uL BSA; 30 min, 4 C
[1] = biological target: T1, Tb10.389.1650 (Trypanosoma brucei) (UniProt Q389D4)
T1 sequence: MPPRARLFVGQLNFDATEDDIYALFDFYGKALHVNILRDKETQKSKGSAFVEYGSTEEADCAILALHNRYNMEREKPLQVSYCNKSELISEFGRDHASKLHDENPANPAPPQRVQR

[2] = biological target: T2, SCHCODRAFT_72118 N130T;T236A;D255N (Schizophyllum commune) (UniProt A0ACF2F787)
T2 sequence: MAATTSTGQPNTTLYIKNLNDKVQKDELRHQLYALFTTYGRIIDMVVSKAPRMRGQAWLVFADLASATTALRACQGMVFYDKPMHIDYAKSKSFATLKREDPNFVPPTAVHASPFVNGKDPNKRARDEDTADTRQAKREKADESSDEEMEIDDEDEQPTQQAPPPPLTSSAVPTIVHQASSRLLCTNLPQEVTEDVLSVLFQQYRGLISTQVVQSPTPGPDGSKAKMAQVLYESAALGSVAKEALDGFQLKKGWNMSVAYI

[3] = biological target: T3, LmjF.30.2180 (Leishmania major) (UniProt Q4Q775)
T3 sequence: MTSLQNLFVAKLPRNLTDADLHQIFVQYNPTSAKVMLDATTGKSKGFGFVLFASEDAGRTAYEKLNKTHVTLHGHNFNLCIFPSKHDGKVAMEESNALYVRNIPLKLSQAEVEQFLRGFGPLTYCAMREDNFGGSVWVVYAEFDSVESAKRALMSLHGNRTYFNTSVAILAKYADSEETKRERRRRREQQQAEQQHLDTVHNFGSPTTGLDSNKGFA

[4] = biological target: T4, PK10695.1 (Cannabis sativa) (UniProt A0A803NZQ3)
T4 sequence: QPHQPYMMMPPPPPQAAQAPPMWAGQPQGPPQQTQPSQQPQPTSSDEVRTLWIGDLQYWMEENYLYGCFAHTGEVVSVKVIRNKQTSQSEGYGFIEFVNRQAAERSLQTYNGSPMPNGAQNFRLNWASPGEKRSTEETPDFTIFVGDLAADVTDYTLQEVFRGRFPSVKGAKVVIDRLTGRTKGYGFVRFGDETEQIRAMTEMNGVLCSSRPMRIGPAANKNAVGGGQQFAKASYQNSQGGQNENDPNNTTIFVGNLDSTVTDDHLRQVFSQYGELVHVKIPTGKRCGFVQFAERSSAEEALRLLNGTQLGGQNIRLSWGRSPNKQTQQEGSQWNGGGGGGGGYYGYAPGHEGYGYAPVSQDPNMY

[5] = biological target: T5, LmjF.32.2810 (Leishmania major) (UniProt Q4Q4Z4)
T5 sequence: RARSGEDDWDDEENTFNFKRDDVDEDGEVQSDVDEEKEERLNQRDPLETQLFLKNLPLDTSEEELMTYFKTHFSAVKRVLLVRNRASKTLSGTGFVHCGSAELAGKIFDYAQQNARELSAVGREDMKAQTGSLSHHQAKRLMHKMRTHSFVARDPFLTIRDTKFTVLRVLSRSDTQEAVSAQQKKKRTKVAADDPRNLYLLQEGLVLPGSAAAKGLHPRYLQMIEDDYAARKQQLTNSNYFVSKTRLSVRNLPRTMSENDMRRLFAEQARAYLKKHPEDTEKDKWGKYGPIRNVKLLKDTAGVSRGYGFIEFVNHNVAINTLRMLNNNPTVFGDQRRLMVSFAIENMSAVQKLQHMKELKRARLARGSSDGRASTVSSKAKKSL

[6] = biological target: T6, LmjF.29.1360 (Leishmania major) (UniProt E9ADZ5)
T6 sequence: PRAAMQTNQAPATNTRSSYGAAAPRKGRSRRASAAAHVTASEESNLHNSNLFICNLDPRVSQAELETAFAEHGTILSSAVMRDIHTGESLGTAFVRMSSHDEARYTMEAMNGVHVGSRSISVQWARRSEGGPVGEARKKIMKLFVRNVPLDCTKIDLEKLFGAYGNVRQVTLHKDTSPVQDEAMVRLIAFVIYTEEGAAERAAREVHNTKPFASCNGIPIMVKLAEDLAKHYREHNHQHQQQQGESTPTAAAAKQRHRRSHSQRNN

[7] = biological target: T7, LmjF.33.1450 (Leishmania major) (UniProt Q4Q442)
T7 sequence: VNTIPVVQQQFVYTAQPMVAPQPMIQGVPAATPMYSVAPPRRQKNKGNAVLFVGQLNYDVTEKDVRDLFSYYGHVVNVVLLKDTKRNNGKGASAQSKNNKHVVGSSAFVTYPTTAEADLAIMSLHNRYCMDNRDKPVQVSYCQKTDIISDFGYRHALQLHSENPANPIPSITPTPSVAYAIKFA

[8] = biological target: T8, LmjF.29.0680 D253N (Leishmania major) (UniProt E9ADS0)
T8 sequence: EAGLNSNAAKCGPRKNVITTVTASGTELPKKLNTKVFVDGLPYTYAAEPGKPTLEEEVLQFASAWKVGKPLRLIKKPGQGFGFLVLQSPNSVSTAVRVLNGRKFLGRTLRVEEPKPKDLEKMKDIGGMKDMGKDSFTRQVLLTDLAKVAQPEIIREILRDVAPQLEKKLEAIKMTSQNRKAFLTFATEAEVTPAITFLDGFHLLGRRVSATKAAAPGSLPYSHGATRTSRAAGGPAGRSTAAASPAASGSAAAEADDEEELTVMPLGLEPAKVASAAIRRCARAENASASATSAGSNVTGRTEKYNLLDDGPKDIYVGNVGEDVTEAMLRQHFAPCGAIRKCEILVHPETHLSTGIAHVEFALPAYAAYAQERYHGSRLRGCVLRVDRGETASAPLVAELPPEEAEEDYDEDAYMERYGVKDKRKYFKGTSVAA

[9] = biological target: T9, Tb927.3.3960 (Trypanosoma brucei) (UniProt Q57WD2)
T9 sequence: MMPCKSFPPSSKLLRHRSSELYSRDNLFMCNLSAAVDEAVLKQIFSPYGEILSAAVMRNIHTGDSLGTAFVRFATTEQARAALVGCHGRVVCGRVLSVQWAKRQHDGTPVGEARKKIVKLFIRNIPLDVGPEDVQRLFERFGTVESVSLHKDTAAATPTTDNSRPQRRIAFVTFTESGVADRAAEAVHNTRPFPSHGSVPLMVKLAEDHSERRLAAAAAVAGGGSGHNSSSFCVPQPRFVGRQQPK

[10] = biological target: T10, Tb11.03.0550 L37P (Trypanosoma brucei) (UniProt Q387J8)
T10 sequence: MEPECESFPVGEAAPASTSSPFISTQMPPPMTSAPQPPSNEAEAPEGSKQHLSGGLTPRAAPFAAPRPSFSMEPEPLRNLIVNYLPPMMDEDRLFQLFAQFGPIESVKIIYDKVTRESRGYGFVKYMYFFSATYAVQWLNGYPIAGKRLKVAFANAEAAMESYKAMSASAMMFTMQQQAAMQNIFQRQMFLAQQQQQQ

Work on UUUGCU [RNAcompete motif RNCMPT00732] yielded a binding signal (z-score (mean of top ten 7-mers)) [1] of 18.9.
UGCACA [RNAcompete motif RNCMPT00723] was tested, and the binding signal (z-score (mean of top ten 7-mers)) [2] was 8.86.
UCAAAA [RNAcompete motif RNCMPT00715] gave a binding signal (z-score (mean of top ten 7-mers)) [3] of 22.8.
Substance UUUAUUUU [RNAcompete motif RNCMPT00741] has a binding signal (z-score (mean of top ten 7-mers)) [4] of 10.2.
GUAGNA [RNAcompete motif RNCMPT00716] gave a binding signal (z-score (mean of top ten 7-mers)) [5] of 6.94.
UAUAGU [RNAcompete motif RNCMPT00714] gave a binding signal (z-score (mean of top ten 7-mers)) [6] of 20.4.
Substance UUGCAGU [RNAcompete motif RNCMPT00717] has a binding signal (z-score (mean of top ten 7-mers)) [7] of 21.8.
GAAGGA [RNAcompete motif RNCMPT00720] was tested, and the binding signal (z-score (mean of top ten 7-mers)) [8] was 7.49.
For CAUUGU [RNAcompete motif RNCMPT00735], the binding signal (z-score (mean of top ten 7-mers)) [9] was 23.
UUAUUUU [RNAcompete motif RNCMPT00749] was tested, and the binding signal (z-score (mean of top ten 7-mers)) [10] was 13.9.
